We go through 1 molecule from publication PMC11066036.

The assay addresses T1, HPK1 intact citron homology domain fragment (C428-E821), untagged, Q92918-2.
T1 chain: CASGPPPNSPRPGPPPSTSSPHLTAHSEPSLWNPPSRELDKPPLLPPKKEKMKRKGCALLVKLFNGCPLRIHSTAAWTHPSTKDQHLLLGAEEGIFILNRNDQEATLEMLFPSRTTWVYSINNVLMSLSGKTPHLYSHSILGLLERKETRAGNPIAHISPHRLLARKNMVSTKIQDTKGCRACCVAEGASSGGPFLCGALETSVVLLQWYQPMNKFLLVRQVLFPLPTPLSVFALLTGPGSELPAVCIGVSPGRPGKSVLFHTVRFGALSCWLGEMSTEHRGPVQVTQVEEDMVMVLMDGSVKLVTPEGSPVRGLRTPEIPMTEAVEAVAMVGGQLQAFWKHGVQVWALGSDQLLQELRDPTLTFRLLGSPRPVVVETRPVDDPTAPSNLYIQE
Description: SPR. The note with it: chain shown with the change; left plot; plateau of the last (highest) of five successive CHD injections, about 800-900 s; CHD concentrations not given; read off a plot.

B1: HPK1 kinase domain wild type (D2-N293) S171A (protein)
chain: DVVDPDIFNRDPRDHYDLLQRLGGGTYGEVFKARDKVSGDLVALKMVKMEPDDDVSTLQKEILILKTCRHANIVAYHGSYLWLQKLWICMEFCGAGSLQDIYQVTGSLSELQISYVCREVLQGLAYLHSQKKIHRDIKGANILINDAGEVRLADFGISAQIGATLARRLAFIGTPYWMAPEVAAVALKGGYNELCDIWSLGITAIELAELQPPLFDVHPLRVLFLMTKSGYQPPRLKEKGKWSAAFHNFIKVTLTKSPKKRPSATKMLSHQLVSQPGLNRGLILDLLDKLKN
B1 registered a response (Response Units) of 42.
